Measurements as given in the nanobody polyreactivity screen of Harvey et al. (2022).

assay: yeast display, Sf9 membrane polyspecificity reagent, FACS + sequencing; frameworks hold sequencing errors
Summary of the method: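 In a synthetic yeast display library (Saccharomyces cerevisiae BJ5465), nanobody expression was induced with galactose for 36–48 hours. FACS gates were set low and high (top ~1%) using anti-HA fluorescence for expression and streptavidin fluorescence for binding of the Sf9 membrane reagent. Each polyreactivity label is drawn from the gate of origin.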

Row | Sequence | polyreactivity (PSR sort gate)
1 | QVQLVESGGGLVQAGGSLRLSCAASGIIFAYYAMGWYRQAPGKERELVAAITSGGSTHYADSVKGRFTISRDNAKNTVYLKMNSLKPEDTAVYYCAADVSYYASLFDYGGQGTQVTVSS | low polyreactivity
2 | QVQLVESGGGLVQAGGSLRLSCAASGIIFAYYAMGWYRQAPGKERELVGTNYADSVKGRFTISRDNAKNTVYLQMNSLKPEDTAVYYCAADFLYYSSGGKMDYWGQGTQVTVSS | low polyreactivity
3 | QVQLVESGGGLVQAGGSLRLSCAASGIIFCRYAMGWYRQAPGKERELVATITWRGGSTYYADSVKGRFTISRDNAKNTVYLQMNSLKPEDTAVYYCAADTRQSRSFRARDYWGQGTQVTVSS | low polyreactivity
4 | QVQLVESGGGLVQAGGSLRLSCAASGIIFDDYALGWYRPAPGKVRELVAAINSNGGTTYYADSVKGRFTISRDNAKNTVYLQMNSLKPEDTAVYYCAARPYRIGRYGYDYDYWGQGTQVTVSS | high polyreactivity
5 | QVQLVESGGGLVQAGGSLRLSCAASGIIFDEYAMGWYRQAPGKEMELVAGITIGGSTNYADSVKGRLTISRDNAKNTVYLQMNSLKPEDTAVYYCDYLGQGTQVTVSS | low polyreactivity
6 | QVQLVESGGGLVQAGGSLRLSCAASGIIFDFYAMGWYRQAPGKEWELVAAITVSGGSTYYADSVKGRFTISRDNAKNTVYLQMNSLKPEDTAVYYCAAVGDWYVSYYEMDYWGQGTQVTVSS | low polyreactivity
7 | QVQLVESGGGLVQAGGSLRLSCAASGIIFDGNAMGWYRQAPGKERELVAAISSGGSTNYADSVKGRFTISRDNAKNTVYLQMNSLKPEDTAVYYCAARYTGKYEREYIYWGQGTQVTVSS | high polyreactivity
8 | QVQLVESGGGLVQAGGSLRLSCAASGIIFDINAMGWYRQAPGKERELVAAITTSVDSTYYADSVKGRFTISRDNAKNTVYLQMNSLKPEDTAVYYCAAGPGDSGDDYWGQGTQVTVSS | low polyreactivity
9 | QVQLVESGGGLVQAGGSLRLSCAASGIIFDRYAMGWYRQAPGKERELVAAITYGGGSTYYADSVKGRFTISRDNAKNTVYLQMNSLKPEDTAVYYCAAVSTWFYQYYYWGQGTQVTVSS | high polyreactivity
10 | QVQLVESGGGLVQAGGSLRLSCAASGIIFDTNAMGWYRQAPGKERELVATITQRGGTTYYADSVKGRFTISRDNAKNTVYLQMNSLKPEDTAVYYCNAGPVRLPYDSWGQGTQVTVSS | low polyreactivity
11 | QVQLVESGGGLVQAGGSLRLSCAASGIIFDWYAMGWYRQAPGKERELVAAISDSGDTTYYADSVKGRFTISRDNAKNTVYLQMNSLKPEDTAVYYCNARVIGIYGYWGQGTQVTVSS | high polyreactivity
12 | QVQLVESGGGLVQAGGSLRLSCAASGIIFDYYAMGWYRPAPGKERELVAAINSGSGSTYYADSVKGRFTISRDNAKNTVYLQMNSLKPEDTAVYYCAADGLSATLTWYSYDYWGQGTQVTVSS | low polyreactivity
13 | QVQLVESGGGLVQAGGSLRLSCAASGIIFEGYAMGWYRQAPGKERELVATITSGGITYYADSVKGRFTISRDNAKNTVYLQMNSLKPEDTAVYYCAADNEDIGSEDSDYGYDYWGQGTQVTVSS | low polyreactivity
14 | QVQLVESGGGLVQAGGSLRLSCAASGIIFERNAMGWYRQAPGKERELVAAITTSGDSTYYADSVKGRFTISRDNAKNTVYLQMNSLKPEDTAVYYCAVEGVIWSFWPYEYWGQGTQVTVSS | high polyreactivity
15 | QVQLVESGGGLVQAGGSLRLSCAASGIIFEYYAMGWYRQAPGKERELVASITSSDGSTYYADSVKGRFTISRDNAKNTVYLQMNSLKPEDTAVYYCAAAGDYVVPISSTAGFGGDYWGQGTQVTVSS | low polyreactivity
16 | QVQLVESGGGLVQAGGSLRLSCAASGIIFFDYAMGWYRQAPGKERELVAAISSGGGNTYYADSVKGRFTISRDNAKNTVYLQMNSLNPEDTAVDYCAAEPYIYGEQGAYDYWGQGTQVTVSS | low polyreactivity
17 | QVQLVESGGGLVQAGGSLRLSCAASGIIFFPYAMGWYRQAPGKEREFVAAITSRGGSTYYADSVKGRFTISRDNAKNTVYLQMNSLKPEDTAVYYCAADHLGRARGPWRYNYWGQGTQVTVSS | low polyreactivity
